From patent publication US20160207996A1 (ARGEN X N V, published 2016)

B1: 9A6 (antibody, V domains shown)
VH: EVQLVQPGAELRNPGASVKVSCKASGYTYTSAYIVWVRQAPGEGLEWMGRIDPEDGGTKYAQKFQGRVTFTADTSTNTAYVELSSLRSDDTAVYYCTAGLDYWGKGTLVTVSS
VL: ATMLTQSPGSLSVVPGESASISCKASQSLVHSDGMTYLYWLQQKPGQSPQRLIYRVSRRGSGVPDRFTGSGSGTDFTLNISDMKAEDAGVYYCAQDTYYPYSFGSGTSVEIK
B2: scFv A8 (scFv)
chain: EVQVQESGPGLVKPSQTLSLTCTVSGESITTNYYYWNWIRQPPGKALEWMGAIGDSGTTWYNPSLKSRTSISRDTSKNQFTLQLISVTPEDTAVYYCARGFYDGSSLDFASWGQGTQVTVSSLSYELTQSPSVSVALRQAAKITCGGNNIASKFVNWYQQKPGQAPILVISKDTNRPSGIPERFSGSNSGNTATLTVSGAQAEDEADYYCQVWDGSAAVFGGGTHLTVLG
B3: scFv B8 (scFv)
chain: QVQLVESGGGLVQPGGSLRLSCATSGFTFSNYYMSWVRQAPGKGPEWVSSIYSDLSTTYYADSVKGRFTISRDRAKNTLYLQMNSLKSEDTAVYYCARLSTVAGMDYWGKGTLVTVSSSYELTQSPSVSVALRQTAKITCGGTNIGSKSAQWYQQKPGQAPMLVIYGDSRRPSGIPERFSGSNSGNTATLTISGAQAEDEADYYCQVWDSSANAAVFGGGTHLTVLG
B4: scFv D6 (scFv, part only; not given: GS linker, not shown: small tags and cut ends)
scFv, part: QLQLVESGGGLVQPGGSLRLSCAASGGIFDVMGWYHQAPGKQRGLVASITPAGSTNYADSVKGRFTISRDNAKNTVYLQMNSLKPDDTGVYYCYADGIDPRYGGDEFWGQGTQVTVSSSYELTQSPSVSVALRQTAKITCGGDNIGSKSAQWYQQKPGQAPVLVIYAGSRRPSGIPERFSGSNSGNTATLTVSGAQAEDEANYSCQVWDSSANASVFGGGTHLTVLG
B5: scFv C12 (scFv, part only; not given: GS linker, not shown: small tags and cut ends)
scFv, part: ELQVVESGGGLVPGGSLRLSCAASGFRVSVNAMSWVRQAPGKGLEWVSHIGSGGITGYADSVKGRFTISRDSAKNTLYLQMNSLKPEDTAVYYCTKRSSGYAWGQGTQVTVSSQAGLTQLPSVSGSPGQKITISCTGSSNNIGAGYSVQWFQQVPGSPPRLLIDGATNRDSGVPDRFSDSRSGSSASLTITGLQAEDEADYYWMLQQPQGVLCSAEGPI
B6: scFv B5 (scFv, part only; not given: GS linker, not shown: small tags and cut ends)
scFv, part: EVQLVQPGAELRNPGASVKVSCKASGYTFTSHYIDWVRQAPGQGLEWMGRIDPEDGGTTYEQKFQGRVTFTADTSTSTVYVELSSLRSEDTAVYYCARSTEIPTIRYYGMDYWGKGTPVTVSSQSVLTQPSAVSVSLGQTARITCQGGSLGSYGANWHQQKPGQAPVLLIYGDNSRPSGIPERFSGSKSGGTATLTISGAQAEDEADYYCQSFDYSGNAVFGGGTHLTVLG
B7: scFv A1 (scFv)
chain: QVQLVESGGGLVQPGGSLRLSCAASGFTFSSYAMTWVRQAPGKGLEWVSTITSNGDSTSYADSVKGRFTISRDNAKNTLYLQMDSLKPEDTAVYYCAKLGDGSYWFYYYGMDYWGQGTQVTVTSSSYELTQSSAVSLSLGQTARITCQGDNLGRYYVNWYQQKPGQAPVQVIYGNSNRPSGIPERFSGSSSGGTATLTISGAQAEDEADYYCQTYENSGVNLVFGGGTKLTVLG
B8: scFv D7 (scFv)
chain: QVQLVESGGGLVQPGGSLRLSCAASGFTFSWYAMSWVRQGPGKGLEWVSAINGGGGSTSYEDSVKGRFTISRDNAKNTLYLEMNSLKPEDTAVYYCARYSDGYSGSYTYTDMDYWGKGTLVTVSSQAVVTQEPSLSVSPGGTVTLTCGLSSGSVTSSNYPVWYQQTPGQAPHLLIYNTNTRHSGVPSRFSGFISGNKAALTITGAQPEDEADYYCASYRRSGRAVFGGGTHLTVLG
B9: scFv A4 (scFv)
chain: QLQVVESGGGLVQPGGSLRLSCAASGFTFDSYWMYWVRQAPGKGLEWLSAINPGGGMTYYADSVKGRFTIARDNAKNTVYLQMNSLKSEDTAVYYCAKELRGSYYYISSEYDYWGQGTQVTVSSLPVLTQPPSVSGTLGKTVTISCAGTSSDIGDYNYVSWYQQLPGTAPKLLIYKVSTRASGIPDRFSGSKSGNTASLTISGLQSEDEADYYCASYRTSNNVVFGGGTHLTVLG
B10: scFv D8 (scFv)
chain: EVQLVESEGGSVQPGDSLRLSCAASGFSFSNAGMSWVRQAPGKGLEWVSAIIPGGYAPYYADSVKGRFTISRDNAKNTVSLQMNSLKPEDTALYYCAKYGGNWDLEVWGQGTLVTVSSQSALTQPPSVSGTLGKTVTISCTGTSSDIGGYNSVSWYQQLPGTAPKLLIYEVNKRASGIPDRFSGSKSGDTASLTISGLQSADEADYYCASYRNTRKSVFGGGTHLTVLG
B11: scFv A5 (scFv)
chain: ELQLVESGGGLVQPGGSLRLSCAASGSTFSTAAMSWVRQAPGKGLEWVSAISSFGASTSYADSVKGRFTISRDIAKNTLYLQMNSLKPEDAAVYYCANVGLHPSWGFTSGFWGQGTQVTVSSSSALTQPPSVSGSPGKTVTISCAGTSSDVGYGNYVSWYQQLPGMAPKLLIHDVNKRASGITDRFSGSKSGNTASLTISGLQSEDEADYYCASYRRRNEVVFGGGTHLTVLG
B12: scFv B2 (scFv)
chain: EVQLQESGGGLVQPGGSLRLSCATSGFTFSNYYMSWVRQAPGKGPEWVSSIYSDLSTTYYADSVKGRFTISRDRAKNTLSLQMNSLKSEDTAVYYCARLSTVAGVDYWGKGTLVTVSSSYELTQSPSVSVALRQTAKITCGGNNIGSKSAQWYQQKPGQAPVLVIYADSRRPSGIPERFSGSNSGNTATLTISGAQAEDEADYYCQVWDSSAAVFGGGTHLTVLG
B13: scFv D5 (scFv)
chain: EVQVQESGGGLVQPGGSLRLSCATSGFTFSNYYMSWVRQAPGKGPEWVSSIYSDLSTTYYADSVKGRFTISRDRAKNTLYLQMNSLKSEDTAVYYCARLSTVAGVDYWGKGTLVTVSSSYELTQSPSVSVALRQTAKITCGGNNIGDKSAQWYQQKPDQAPVLVIYADNRRPSEIPERFSGSNSGDTATLTISGAQAEDEADYYCQVWDSGANAAVFGGGTHLTVLG
B14: scFv A7 (scFv)
chain: QLQVVESGGGLVQPGGSLRLSCATSGFTFSNYYMSWVRQAPGKGPEWVSSIYSDLSTTYYADSVKGRFTISRDRAKNTLYLQMNSLKSEDTAVYYCARLSTVAGVDYWGKGTLVTVSSSYELTQSPSVSVALRQTAKITCGGNNIGSKSAQWYQQKPGQAPVLVIYADSRRPSGIPEKFSGSNSGNTATLTISGAQAEDEADYYCQVWDSSANAAVFGGGTHLTVLG
B15: scFv B4 (scFv)
chain: EVQVQESGPGLVKPSQTLSLTCTVSGGSITTDYSYWSWIRQPPGKGLEWMGAIAFSDTTYYSPSLKSRTSISRDTSKNQFTLQLSSVTPEDTAVYYCARLSTVAGMDYWGKGTLVTVSSASAAASGSYELTQSPSVSVALRQTAKITCGGNNIGSKSAQWYQQKPGQAPVLVIYADNRRPSEIPERFSGSNSGDTATLTISGAQAEDEADYYCQVWDSSANAAVFGGGTHLTVLG

What follows are binders tested against human Nav1.7 (full length) (human) (UniProt Q15858) (assay: cell-based or functional assay).
B1 gave a % inhibition of inward current following P02 voltage protocol, 10 µg/ml of 16.9%, a % inhibition of inward current following P02 voltage protocol, 25 µg/ml of 28% and a % inhibition of inward current following P02 voltage protocol, 100 µg/ml of 36.2%.

The binders below were run against T1, Nt-GCGR-hFc (human, UniProt P47871 26-136) (assay: scFv binding ELISA, periplasmic extract on coated Nt-GCGR).
T1 construct: domain: N-terminal domain; also called Nt-GCGR-Fc; recombinant N-terminal domain of GCGR; not shown: hFc
T1 sequence (P47871 26-136): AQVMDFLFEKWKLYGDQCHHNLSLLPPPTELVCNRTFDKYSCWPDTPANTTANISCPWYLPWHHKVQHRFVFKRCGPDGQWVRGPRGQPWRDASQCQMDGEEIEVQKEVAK
B2 was tested, and the “ScFv binding ELISA signal” value was 1.7.
With B3 the “ScFv binding ELISA signal” value was 0.205.
B4 was tested, and the ScFv binding ELISA signal was 1.09.
B5 gave a ScFv binding ELISA signal of 2.56.
In the case of B6, the ScFv binding ELISA signal is reported as 0.508.
With B7 the “ScFv binding ELISA signal” value was 2.18.
With B8 the “ScFv binding ELISA signal” value was 0.1.
B9 was tested, and the “ScFv binding ELISA signal” value was 0.342.
In the case of B10, the “ScFv binding ELISA signal” value is reported as 1.14.
With B11 the “ScFv binding ELISA signal” value was 1.31.
For B12, the “ScFv binding ELISA signal” value was 0.137.
For B13, the “ScFv binding ELISA signal” value was 0.268.
B14 was tested, and the “ScFv binding ELISA signal” value was 0.394.
With B15 the “ScFv binding ELISA signal” value was 0.476.
